B1: PGT 128 (format not stated for the experiment) (antibody, V domains shown)
VH: QPQLQESGPTLVEASETLSLTCAVSGDSTAACNSFWGWVRQPPGKGLEWVGSLSHCASYWNRGWTYHNPSLKSRLTLALDTPKNLVFLKLNSVTAADTATYYCARFGGEVLRYTDWPKPAWVDLWGRGTLVTVSS
VL: QSALTQPPSASGSPGQSITISCTGTSNNFVSWYQQHAGKAPKLVIYDVNKRPSGVPDRFSGSKSGNTASLTVSGLQTDDEAVYYCGSLVGNWDVIFGGGTKLTVL
B2: Fab PGT 128 (Fab, V domains shown)
VH: B1 VH
VL: B1 VL

Legend:
[1] = target: engineered outer domain mini-V3 (glycosylated gp120 outer domain construct containing a truncated V3 loop) (HIV-1)
[2] = target: soluble, partially deglycosylated 664G Env trimer (HIV-1); assay: negative-stain EM reconstruction

Binder	Kd [1] [nM]	fold less than the interaction with m8 [1] [fold]	stoichiometry N [2]
B1	46	8	
B2			3
